# Experiments:
# [1] = molecular target: T1, human Amyloid beta 1-42 peptide (Homo sapiens, UniProt P05067); assay: Surface Plasmon Resonance kinetic profiling of purified scFv (ProteOn); assay type: binding; settings: biotinylated human Amyloid beta 1-42 on streptavidin chip
# T1 construct: biotinylated human Amyloid beta 1-42 peptide (rpeptide, USA; cat: A1117); purchased rPeptide, USA A1117; host or cells: synthetic peptide
# Source text: Surface Plasmon Resonance was used to analyse the purified scFv clones that had shown significant improvement in binding affinity for human Amyloid beta 1-42 peptide over the parent sequence, Abet0144-GL, in the HTRF™ epitope competition assay (sections 1.3-1.6). Briefly, the ProteOn Protein Interaction Array System (BioRad, USA) was used to assess the kinetic parameters of the interaction between each purified scFv and synthetically produced human Amyloid beta 1-42 peptide. These experiments were performed essentially as described by Karlsson et al. (Karlsson et al., 1991).
# The affinity of binding between each test scFv and human Amyloid beta 1-42 was estimated using assays in which biotinylated synthetic human Amyloid beta 1-42 peptide (rPeptide, USA; cat: Al 117) was non-covalently bound via a biotin/streptavidin interaction to a proprietary streptavidin chip (NTA 176-5021) at five different surface densities. The chip surface was regenerated between cycles by a single 60 second injection of 10 mM Glycine pH 2.0 to remove scFv bound to the peptide.
# Each scFv at 100-200 nM was sequentially passed over the peptide surface for a sufficient amount of time to observe sensorgrams that could be fitted to an appropriate binding model with confidence. An irrelevant scFv blank was subtracted from the main dataset to reduce the impact of any buffer artefacts or non-specific binding effects. An appropriate binding model was then fitted to the data.
# [2] = molecular target: T2, Amyloid beta 1-42 peptide (Rattus norvegicus, UniProt P08592); assay: Total Amyloid beta 1-42 peptide in rat brain homogenates (ELISA); assay type: in vivo; settings: normal rats
# T2 construct: Measurement of free Amyloid beta 1-42 peptide in rat CSF; from tissue; host or cells: CSF and brain homogenate of Sprague-Dawley rats
# Description: (§1) Eight-week old male albino Harlan Sprague-Dawley rats (n=8-12) received a single dose of Abet0380-GL IgG1-TM antibody by intravenous injection with a dosing vehicle of 25 mM Histidine, 7% Sucrose, 0.02% p80 surfactant, pH 6.0 at 5 ml/kg. Dosing solutions were made just before dosing. Animals were anaesthetized at the time indicated and cerebrospinal fluid (CSF) was aspirated from the cistema magna. CSF samples were centrifuged for 10 minutes at approximately 3000× g at 4° C. within 20 minutes of sampling to remove cells or debris. Samples were then frozen on dry ice and stored at −70° C. for subsequent analysis.
# Animals were sacrificed by decapitation, brain tissue was dissected and Amyloid beta peptides were extracted from brain tissue in diethylamine (DEA; Fluka. Sigma. UK; cat: 31729). Briefly, frozen brain tissue was homogenized in 0.2% DEA and 50 mM NaCl (Merck, USA: cat: 1.06404.1000). Brain homogenates were ultracentrifuged at 133,000×g, for 1 hour. Recovered supernatants were neutralized to pH 8.0 with 2 M Tris-HCl (TRIZMA®-hydrochloride; Sigma, UK; cat: 93363) and stored at −70° C. until analysis. Animal experimentations were performed in accordance with relevant guidelines and regulations provided by the Swedish Board of Agriculture. The ethical permission was provided by an ethical board specialized in animal experimentations: the Stockholm Södra Animal Research Ethical Board.
# Measurement of total (free and Abet0380-GL bound) Amyloid beta 1-42 peptide in rat brain homogenates was performed using modifications of the mouse Amyloid beta (1-42) colorimetric ELISA kit (Invitrogen, UK: cat: KMB3441). […] To stop the reaction, 100 μl of Stop Solution was added to each well and the plate was read within 2 hours at an absorbance of 450 nm. […]
# The ability of antibody Abet0144-GL to sequester amyloid beta 1-42 was investigated in a PK-PD study in normal rats. […] Free and total amyloid beta 1-42 levels were measured using assays described above.
# amyloid beta 1-42 = molecular target: T3, amyloid beta 1-42 (Rattus norvegicus, UniProt P08592); assay: Total amyloid beta 1-42 in rat CSF (PK-PD study in normal rats); assay type: in vivo
# T3 construct: Measurement of free Amyloid beta 1-42 peptide in rat CSF; from tissue; host or cells: CSF and brain homogenate of Sprague-Dawley rats
# Description: (§2) The ability of antibody Abet0144-GL to sequester amyloid beta 1-42 was investigated in a PK-PD study in normal rats. Rats were intravenously administered Abet0144-GL (10 or 40 mg/kg) or vehicle weekly for 2 weeks (on days 0 and 7), and sacrificed a week after the 2nd dose. CSF was sampled for free and total amyloid beta 1-42, and brain was sampled for total amyloid beta 1-42 measurement. Free and total amyloid beta 1-42 levels were measured using assays described above.
# [3] = molecular target: T2, Amyloid beta 1-42 peptide; assay: Free Amyloid beta 1-42 peptide in rat CSF (immunoprecipitation + ELISA); assay type: in vivo; settings: normal rats, 10 mg/kg i.v. weekly for 2 weeks; not significant
# Description: as §1
# Measurement of free Amyloid beta 1-42 peptide in rat CSF was conducted using immunoprecipitation to remove Abet0380-GL bound Amyloid beta 1-42 peptide, followed by analysis by a commercial ELISA kit obtained from Invitrogen. Briefly, a solution of protein A beads (Dynabeads® Protein A; Invitrogen, UK; cat: 100-02D) was added to a 96 well non-skirted plate (polypropylene 0.2 ml; VWR International, UK; cat: 10732-4828) and washed twice with TBST (50 mM TBS; Sigma, UK; cat: T6664 plus 0.1% Tween20) using a magnet (DynaMag™ 96 side; Invitrogen, UK; cat: 123.31 D) to separate the beads from the solution. Thawed rat CSF samples (40 μl) were added to each well and incubated at […] with tilt rotation for 1 hour. The beads were then pelleted using the magnet and 30 μl of immunoprecipitated CSF samples were transferred to a 96 well plate from the ELISA kit (mouse Amyloid beta (1-42) colorimetric ELISA kit; Invitrogen, UK; cat: KMB3441) with 70 μl of the Standard Diluent Buffer already added (supplemented with protease inhibitor; Roche, UK; cat: 11836153001). Calibration standard samples were added to the plate in duplicate and the plate was incubated for 2 hours at room temperature with shaking. The plate was washed 4 times with 400 µl of wash buffer, 100 μl of the detection antibody solution was added to each well and the plate was incubated for 1 hour at room temperature with shaking. Again, the plate was washed 4 times with 400 μl of wash buffer, 100 μl of the secondary antibody working solution was added to each well and the plate was incubated for 30 minutes at room temperature with shaking. Finally, the plate was washed 4 times with 400 μl of wash buffer, 100 μl of stabilized Chromogen was added to each well and the plate was incubated for 30 minutes at room temperature in the dark. To stop the reaction, 100 μl of Stop Solution was added to each well and the plate was read within 2 hours at an absorbance of 450 nm. Single CSF samples were analyzed and data analysis was performed using Prism 4 (GraphPad, USA) with one-way ANOVA on log transformed data without adjustment for multiple comparisons.
# To further investigate the effect of the Abet0380-GL IgG1-TM antibody in vivo, rats were administered weekly doses of 0.25, 0.5, 1, 5 or 10 mg/kg over 14 days. Animals were euthanized 168 hours after the second dose to measure levels of free Amyloid beta 1-42 peptide in CSF as well as total Amyloid beta 1-42 or 1-40 peptides in brain tissue.
# as §2, with “CSF was sampled for free and total amyloid beta 1-42, and brain was sampled for total amyloid beta 1-42 measurement.” left out
# [4] = 10 mg/kg i.v. weekly for 2 weeks
# [5] = 40 mg/kg i.v. weekly for 2 weeks
# T2 sequence (P08592 672-713 limits assumed): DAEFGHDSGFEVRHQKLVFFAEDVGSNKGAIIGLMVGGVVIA
# T3 sequence (P08592 672-713 limits assumed): as above
# T1 sequence (P05067 672-713): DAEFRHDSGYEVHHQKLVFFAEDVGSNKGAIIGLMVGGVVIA
molecule,measurement,setting,value
"Abet0144-GL: parent anti-Aβ antibody clone, germlined; VH domain SEQ ID NO: 20 and VL domain SEQ ID NO: 29 (antibody, listed as Homo sapiens, V domains shown, /note=“Abet0144-GL”) VH: EVQLLESGGGLVQPGGSLRLSCAASGFTFSVYTMWWVRQAPGKGLEWVSVIGSSGGTTVYADSVKGRFTISRDNSKNTLYLQMNSLRAEDTAVYYCAREWMDHSRPYYYYGMDVWGQGTLVTVSS VL: SYELTQPPSVSVSPGQTASITCSGHNLEDKFASWYQQKPGQSPVLVIYRDDKRPSGIPERFSASNSGHTATLTISGTQAMDEADYYCQAQDSTTRVFGGGTKLTVL",ka,[1],116000 M⁻¹ s⁻¹
same,kd,[1],0.0066 s⁻¹
same,increase of total amyloid beta 1-42 in brain tissue,[2]; [4],16%
same,increase of total amyloid beta 1-42 in brain tissue,[2]; [5],50%
same,increase of total amyloid beta 1-42 in CSF,amyloid beta 1-42; [4],38%
same,increase of total amyloid beta 1-42 in CSF,amyloid beta 1-42; [5],139%
same,increase of free amyloid beta 1-42 in CSF compared with vehicle,[3],5%

# From patent publication US20190262327A1, “COMBINATION OF A BACE INHIBITOR AND AN ANTIBODY OR ANTIGEN-BINDING FRAGMENT FOR THE TREATMENT OF A DISORDER ASSOCIATED WITH THE ACCUMULATION OF AMYLOID BETA” (ASTRAZENECA AB, priority 2016, published 2019)
